Results reported in paper PMC4381924.
Several values for one entry are separate records, joined by “and”; a condition that tells them apart may be missing. Equal entries are not always repeated. One block for each substance: values may come before it.

How the values were obtained:
[1] = molecular target: IGF1R TM-fp (human); experiment: FRET or BRET; spectrally resolved two-photon FRET on living, serum-starved CHO cells; mTurquoise donor, EYFP acceptor; FRET efficiency per membrane pixel; without IGF1
[2] = molecular target: IGF1R TM-icd H905C (human); experiment: cross-linking; disulfide bond between introduced cysteines; HEK293 cells incubated with or without IGF1, lysed in RIPA buffer with 10 mM iodoacetamide; non-reducing against reducing SDS-PAGE, anti-IGF1Rβ Western blot
[3] = molecular target: IGF1R ECD-TM-fp (human)
[4] = molecular target: IGF1R ECDΔL1-TM-fp (human); experiment: FRET or BRET; quantitative imaging FRET (QI-FRET) in plasma-membrane vesicles derived from transiently co-transfected CHO cells; EYFP donor, mCherry acceptor; confocal microscopy at room temperature; intrinsic FRET corrected for proximity FRET and donor-to-acceptor ratio; without IGF1
[5] = molecular target: IGF1R ECD-TM-fp (human); experiment: FRET or BRET; spectrally resolved two-photon FRET on living, serum-starved CHO cells; mTurquoise donor, EYFP acceptor; FRET efficiency per membrane pixel; with IGF1
[6] = molecular target: IGF1R ECD-TM-fp (human); experiment: FRET or BRET; quantitative imaging FRET (QI-FRET) in plasma-membrane vesicles derived from transfected CHO cells; intrinsic FRET corrected for proximity FRET and donor-to-acceptor ratio; with IGF1
[7] = molecular target: IGF1R ECD-TM-fp H905C (human); experiment: FRET or BRET; quantitative imaging FRET (QI-FRET) in plasma-membrane vesicles derived from transiently co-transfected CHO cells; EYFP donor, mCherry acceptor; confocal microscopy at room temperature; intrinsic FRET corrected for proximity FRET and donor-to-acceptor ratio; without IGF1

IGF1R ECD-TM-fp, sequence (P08069 741-935): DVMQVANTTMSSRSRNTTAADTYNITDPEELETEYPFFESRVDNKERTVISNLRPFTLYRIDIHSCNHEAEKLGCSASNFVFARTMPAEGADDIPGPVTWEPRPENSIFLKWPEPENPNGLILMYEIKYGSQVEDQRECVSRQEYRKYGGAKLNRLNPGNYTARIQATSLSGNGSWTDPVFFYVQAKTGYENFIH
IGF1, sequence (P05019 49-118): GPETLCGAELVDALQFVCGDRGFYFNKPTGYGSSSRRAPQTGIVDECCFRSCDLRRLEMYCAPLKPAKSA

Substance: IGF1R TM-fp (domain or fragment)
- FRET efficiency per membrane pixel (peak of a two state distribution) [1]: 0.37 and 0.33

Substance: IGF1R TM-icd H905C (domain or fragment)
- stoichiometry N [2]: 2

Substance: IGF1R ECD-TM-fp (domain or fragment)
- FRET efficiency per membrane pixel (peak of a normal distribution) [5]: 0.34
- intrinsic FRET efficiency (y intercept of a horizontal line) [6]: 0.34

Other lines, results leading:

- FRET efficiency between co-transfected donor- and acceptor-tagged IGF1R ECD-TM-fp in membranes of live CHO cells, with against without ligand [3]: 2 fold
Substance: IGF1 (from UniProt P05019 49-118) (ligand)

- intrinsic FRET efficiency (y intercept of a horizontal line) [4]: 0.36
Substance: IGF1R ECDΔL1-TM-fp (domain or fragment)

- intrinsic FRET efficiency (y intercept of a horizontal line) [7]: 0.38
Substance: IGF1R ECD-TM-fp H905C (domain or fragment)
